Legend:
Assay in all cases: cell-based or functional assay
[1] = target: T1, Flt3(h) (human, UniProt P36888 564-993, limits assumed)
T1 sequence (looked up): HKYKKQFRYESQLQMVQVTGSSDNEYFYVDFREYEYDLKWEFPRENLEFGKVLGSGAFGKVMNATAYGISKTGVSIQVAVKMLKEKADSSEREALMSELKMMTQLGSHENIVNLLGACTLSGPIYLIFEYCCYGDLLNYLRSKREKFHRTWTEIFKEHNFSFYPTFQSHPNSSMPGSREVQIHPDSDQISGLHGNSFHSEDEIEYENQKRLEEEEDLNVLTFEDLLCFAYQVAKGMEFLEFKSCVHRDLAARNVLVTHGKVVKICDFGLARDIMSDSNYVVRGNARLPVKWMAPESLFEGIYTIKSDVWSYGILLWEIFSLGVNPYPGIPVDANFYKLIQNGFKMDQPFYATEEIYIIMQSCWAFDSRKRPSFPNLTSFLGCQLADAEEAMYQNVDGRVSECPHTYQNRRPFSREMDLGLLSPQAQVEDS

[2] = target: Fyn(h) (human, UniProt P06241 1-537)
Chain of Fyn(h) (P06241 whole entry): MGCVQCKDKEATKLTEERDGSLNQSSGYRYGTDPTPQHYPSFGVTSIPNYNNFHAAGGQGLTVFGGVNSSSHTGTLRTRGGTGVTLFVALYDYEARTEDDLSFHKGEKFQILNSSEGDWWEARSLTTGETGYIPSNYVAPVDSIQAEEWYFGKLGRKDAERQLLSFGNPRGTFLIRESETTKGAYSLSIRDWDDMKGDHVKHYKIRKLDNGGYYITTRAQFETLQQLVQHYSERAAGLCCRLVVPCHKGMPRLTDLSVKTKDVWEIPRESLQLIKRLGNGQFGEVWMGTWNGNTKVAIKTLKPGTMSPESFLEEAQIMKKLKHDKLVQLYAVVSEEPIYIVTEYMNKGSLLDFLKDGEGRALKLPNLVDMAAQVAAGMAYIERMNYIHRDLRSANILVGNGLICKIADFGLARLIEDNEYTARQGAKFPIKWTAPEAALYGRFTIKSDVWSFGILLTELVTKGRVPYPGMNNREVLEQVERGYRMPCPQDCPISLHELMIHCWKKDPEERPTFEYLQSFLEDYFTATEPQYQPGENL

[3] = target: JNK3(h) (human, UniProt P53779 1-464, limits assumed)
[4] = target: LIMK1(h) (human, UniProt P53667 285-638, limits assumed)
Chain of LIMK1(h) (P53667 285-638 limits assumed): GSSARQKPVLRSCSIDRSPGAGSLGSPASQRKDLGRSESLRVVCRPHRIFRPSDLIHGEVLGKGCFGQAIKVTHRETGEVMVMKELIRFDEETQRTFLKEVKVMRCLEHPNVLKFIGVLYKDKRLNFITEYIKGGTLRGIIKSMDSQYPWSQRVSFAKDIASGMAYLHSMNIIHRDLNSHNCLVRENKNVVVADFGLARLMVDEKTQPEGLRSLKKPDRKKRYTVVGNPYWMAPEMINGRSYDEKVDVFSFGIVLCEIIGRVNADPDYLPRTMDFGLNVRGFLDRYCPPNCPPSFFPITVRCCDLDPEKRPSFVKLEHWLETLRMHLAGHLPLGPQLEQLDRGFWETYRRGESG

[5] = target: MAPK2(h) (human, UniProt P28482 1-360)
Chain of MAPK2(h) (P28482 whole entry): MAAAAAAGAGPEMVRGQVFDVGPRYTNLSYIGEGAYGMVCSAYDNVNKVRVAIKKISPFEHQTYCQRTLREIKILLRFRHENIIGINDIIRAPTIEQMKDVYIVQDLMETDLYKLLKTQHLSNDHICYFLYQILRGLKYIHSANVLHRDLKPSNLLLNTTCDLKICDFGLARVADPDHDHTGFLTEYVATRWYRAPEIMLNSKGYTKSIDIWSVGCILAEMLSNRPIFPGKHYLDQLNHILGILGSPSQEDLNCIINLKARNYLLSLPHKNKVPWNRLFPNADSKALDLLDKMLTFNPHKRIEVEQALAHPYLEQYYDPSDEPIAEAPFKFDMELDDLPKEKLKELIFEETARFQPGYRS

[6] = target: MELK(h) (human, UniProt Q14680 1-340, limits assumed)
[7] = target: Met(M1268T)(h) (human, UniProt P08581-2 974-1408, limits assumed)
[8] = target: Met(Y1248D)(h) (human, UniProt P08581-2 974-1408, limits assumed)
[9] = target: mTOR(h) (human, UniProt P42345 1362-2549)
Chain of mTOR(h) (P42345 1362-2549 limits assumed): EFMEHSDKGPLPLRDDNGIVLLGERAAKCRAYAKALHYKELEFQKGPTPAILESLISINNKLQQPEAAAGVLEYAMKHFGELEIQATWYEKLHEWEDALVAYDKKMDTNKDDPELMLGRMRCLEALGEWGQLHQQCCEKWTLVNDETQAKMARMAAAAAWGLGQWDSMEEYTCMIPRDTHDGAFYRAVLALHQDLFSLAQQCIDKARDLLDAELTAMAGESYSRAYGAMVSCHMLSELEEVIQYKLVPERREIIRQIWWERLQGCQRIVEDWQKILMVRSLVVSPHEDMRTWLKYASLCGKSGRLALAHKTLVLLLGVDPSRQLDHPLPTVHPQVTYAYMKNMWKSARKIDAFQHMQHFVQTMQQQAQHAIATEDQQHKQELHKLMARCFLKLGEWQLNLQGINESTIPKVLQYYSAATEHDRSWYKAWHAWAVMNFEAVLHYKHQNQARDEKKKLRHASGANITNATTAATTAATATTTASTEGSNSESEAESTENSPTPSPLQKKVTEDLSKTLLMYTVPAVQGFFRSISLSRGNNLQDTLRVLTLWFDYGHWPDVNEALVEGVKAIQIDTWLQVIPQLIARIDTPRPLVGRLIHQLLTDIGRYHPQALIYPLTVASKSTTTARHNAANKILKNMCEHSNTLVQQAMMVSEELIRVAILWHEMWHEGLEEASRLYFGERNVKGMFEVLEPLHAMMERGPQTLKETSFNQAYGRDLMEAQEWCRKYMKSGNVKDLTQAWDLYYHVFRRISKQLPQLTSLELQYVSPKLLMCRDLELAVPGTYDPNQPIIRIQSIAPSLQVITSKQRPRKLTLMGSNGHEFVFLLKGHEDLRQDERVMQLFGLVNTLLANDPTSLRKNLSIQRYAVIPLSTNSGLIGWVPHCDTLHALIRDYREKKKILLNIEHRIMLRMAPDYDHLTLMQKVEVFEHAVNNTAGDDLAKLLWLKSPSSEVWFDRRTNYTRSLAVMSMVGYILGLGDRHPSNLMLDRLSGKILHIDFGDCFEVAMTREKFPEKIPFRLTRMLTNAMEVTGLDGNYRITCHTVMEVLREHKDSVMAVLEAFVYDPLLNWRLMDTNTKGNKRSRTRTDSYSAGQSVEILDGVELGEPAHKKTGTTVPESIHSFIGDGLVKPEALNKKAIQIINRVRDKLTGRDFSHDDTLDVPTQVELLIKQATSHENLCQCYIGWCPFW

[10] = target: NEK7(h) (human, UniProt Q8TDX7 1-302)
Chain of NEK7(h) (Q8TDX7 whole entry): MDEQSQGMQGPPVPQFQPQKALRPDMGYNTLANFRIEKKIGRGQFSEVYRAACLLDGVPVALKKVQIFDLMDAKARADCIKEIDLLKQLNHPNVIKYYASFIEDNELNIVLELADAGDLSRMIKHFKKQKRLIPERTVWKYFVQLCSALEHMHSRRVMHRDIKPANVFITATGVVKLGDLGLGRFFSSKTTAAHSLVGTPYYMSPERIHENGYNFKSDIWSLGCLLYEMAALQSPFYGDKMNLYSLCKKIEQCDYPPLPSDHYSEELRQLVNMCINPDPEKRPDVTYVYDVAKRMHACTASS

[11] = target: T2, NLK(h) (human, UniProt Q9UBE8 1-527, limits assumed)
T2 sequence (looked up): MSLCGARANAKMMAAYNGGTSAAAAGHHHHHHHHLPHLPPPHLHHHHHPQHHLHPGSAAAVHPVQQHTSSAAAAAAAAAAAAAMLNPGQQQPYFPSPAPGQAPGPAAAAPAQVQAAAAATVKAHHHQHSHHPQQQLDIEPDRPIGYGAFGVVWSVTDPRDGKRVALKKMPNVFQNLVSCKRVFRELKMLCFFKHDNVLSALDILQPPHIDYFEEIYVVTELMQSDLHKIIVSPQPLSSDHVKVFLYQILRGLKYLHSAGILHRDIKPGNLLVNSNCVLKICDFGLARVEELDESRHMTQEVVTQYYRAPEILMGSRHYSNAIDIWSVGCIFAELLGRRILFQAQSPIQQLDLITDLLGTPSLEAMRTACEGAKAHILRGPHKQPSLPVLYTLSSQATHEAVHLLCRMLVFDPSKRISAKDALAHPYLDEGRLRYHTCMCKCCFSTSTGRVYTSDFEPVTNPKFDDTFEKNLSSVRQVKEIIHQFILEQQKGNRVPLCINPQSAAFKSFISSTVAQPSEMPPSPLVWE

[12] = target: PDGFRα(h) (human, UniProt P16234 550-1089, limits assumed)
[13] = target: Pim-1(h) (human, UniProt P11309 1-313)
Chain of Pim-1(h) (P11309 whole entry): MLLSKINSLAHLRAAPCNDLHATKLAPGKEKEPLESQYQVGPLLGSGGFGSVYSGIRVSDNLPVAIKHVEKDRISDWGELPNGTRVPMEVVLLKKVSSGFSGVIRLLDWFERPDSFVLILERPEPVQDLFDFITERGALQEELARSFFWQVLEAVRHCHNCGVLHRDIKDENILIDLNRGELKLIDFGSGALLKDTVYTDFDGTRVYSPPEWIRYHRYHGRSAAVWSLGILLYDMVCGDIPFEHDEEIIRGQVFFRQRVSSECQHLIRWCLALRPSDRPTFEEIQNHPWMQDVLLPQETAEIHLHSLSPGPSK

[14] = target: T3, SGK3(h) (human, UniProt Q96BR1 1-496, limits assumed)
T3 sequence (looked up): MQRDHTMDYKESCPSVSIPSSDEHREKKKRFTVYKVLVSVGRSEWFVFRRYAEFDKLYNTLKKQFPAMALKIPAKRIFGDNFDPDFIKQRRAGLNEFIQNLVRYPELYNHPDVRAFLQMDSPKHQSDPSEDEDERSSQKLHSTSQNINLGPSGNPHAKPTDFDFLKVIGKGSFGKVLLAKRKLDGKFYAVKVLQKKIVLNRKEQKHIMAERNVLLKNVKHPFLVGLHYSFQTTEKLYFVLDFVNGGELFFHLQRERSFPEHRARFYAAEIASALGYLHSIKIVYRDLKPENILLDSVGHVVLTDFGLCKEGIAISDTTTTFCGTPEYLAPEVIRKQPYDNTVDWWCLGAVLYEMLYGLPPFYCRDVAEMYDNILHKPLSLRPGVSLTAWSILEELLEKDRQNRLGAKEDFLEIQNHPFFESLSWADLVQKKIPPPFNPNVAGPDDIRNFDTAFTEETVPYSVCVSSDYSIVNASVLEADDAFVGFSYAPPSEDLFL

[15] = target: Snk(h) (human, UniProt Q9NYY3 1-685, limits assumed)
[16] = target: SRPK1(h) (human, UniProt Q96SB4 1-655)
Chain of SRPK1(h) (Q96SB4 whole entry): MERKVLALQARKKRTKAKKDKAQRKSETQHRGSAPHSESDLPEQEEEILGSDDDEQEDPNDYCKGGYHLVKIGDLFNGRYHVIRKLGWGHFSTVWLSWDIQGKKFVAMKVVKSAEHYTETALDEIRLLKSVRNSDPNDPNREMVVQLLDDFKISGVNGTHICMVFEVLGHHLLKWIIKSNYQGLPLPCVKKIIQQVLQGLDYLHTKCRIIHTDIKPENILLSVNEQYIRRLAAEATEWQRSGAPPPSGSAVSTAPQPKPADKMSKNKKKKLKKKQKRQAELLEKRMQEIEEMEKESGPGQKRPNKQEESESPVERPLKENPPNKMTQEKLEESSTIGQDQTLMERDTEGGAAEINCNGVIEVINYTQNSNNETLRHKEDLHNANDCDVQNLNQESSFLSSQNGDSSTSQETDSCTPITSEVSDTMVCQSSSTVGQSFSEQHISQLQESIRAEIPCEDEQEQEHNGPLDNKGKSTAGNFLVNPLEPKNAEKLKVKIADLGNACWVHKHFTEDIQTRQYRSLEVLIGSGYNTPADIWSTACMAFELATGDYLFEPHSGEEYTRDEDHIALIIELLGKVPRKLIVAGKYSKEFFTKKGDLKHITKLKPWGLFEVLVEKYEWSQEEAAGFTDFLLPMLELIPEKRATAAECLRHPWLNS

[17] = target: CDK3/cyclinE(h) (human, UniProt Q00526 1-305; P24864 1-410)
[18] = target: CHK2(h) (human, UniProt O96017 5-543, limits assumed)
Chain of CHK2(h) (O96017 5-543 limits assumed): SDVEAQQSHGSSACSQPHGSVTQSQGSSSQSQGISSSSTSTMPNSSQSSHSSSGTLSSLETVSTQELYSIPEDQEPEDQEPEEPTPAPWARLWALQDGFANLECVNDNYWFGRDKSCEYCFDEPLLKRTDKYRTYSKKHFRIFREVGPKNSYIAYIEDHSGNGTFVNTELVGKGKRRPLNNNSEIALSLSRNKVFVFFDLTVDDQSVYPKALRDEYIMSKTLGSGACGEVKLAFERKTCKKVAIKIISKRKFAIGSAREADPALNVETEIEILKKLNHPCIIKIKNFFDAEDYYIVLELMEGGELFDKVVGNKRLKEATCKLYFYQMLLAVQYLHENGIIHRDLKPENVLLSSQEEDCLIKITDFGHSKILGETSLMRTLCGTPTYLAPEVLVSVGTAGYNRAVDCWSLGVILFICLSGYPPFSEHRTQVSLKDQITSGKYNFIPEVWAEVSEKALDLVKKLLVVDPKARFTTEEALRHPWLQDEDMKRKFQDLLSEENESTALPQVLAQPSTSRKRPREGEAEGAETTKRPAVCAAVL

[19] = target: cKit(V654A)(h) (human, UniProt P10721 544-976)
[20] = target: DAPK1(h) (human, UniProt P53355 1-363, limits assumed)
Chain of DAPK1(h) (P53355 1-363 limits assumed): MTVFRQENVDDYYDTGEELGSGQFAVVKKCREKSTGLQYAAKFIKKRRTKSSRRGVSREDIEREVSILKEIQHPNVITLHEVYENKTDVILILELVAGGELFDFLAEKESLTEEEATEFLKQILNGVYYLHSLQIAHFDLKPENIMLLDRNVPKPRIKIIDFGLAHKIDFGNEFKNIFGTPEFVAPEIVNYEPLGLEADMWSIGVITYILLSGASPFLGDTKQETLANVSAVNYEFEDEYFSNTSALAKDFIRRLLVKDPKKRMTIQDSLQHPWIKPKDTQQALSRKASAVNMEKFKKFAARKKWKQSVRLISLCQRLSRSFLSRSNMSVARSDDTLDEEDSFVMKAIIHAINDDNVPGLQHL

[21] = target: DAPK2(h) (human, UniProt Q9UIK4 1-370, limits assumed)
Chain of DAPK2(h) (Q9UIK4 whole entry): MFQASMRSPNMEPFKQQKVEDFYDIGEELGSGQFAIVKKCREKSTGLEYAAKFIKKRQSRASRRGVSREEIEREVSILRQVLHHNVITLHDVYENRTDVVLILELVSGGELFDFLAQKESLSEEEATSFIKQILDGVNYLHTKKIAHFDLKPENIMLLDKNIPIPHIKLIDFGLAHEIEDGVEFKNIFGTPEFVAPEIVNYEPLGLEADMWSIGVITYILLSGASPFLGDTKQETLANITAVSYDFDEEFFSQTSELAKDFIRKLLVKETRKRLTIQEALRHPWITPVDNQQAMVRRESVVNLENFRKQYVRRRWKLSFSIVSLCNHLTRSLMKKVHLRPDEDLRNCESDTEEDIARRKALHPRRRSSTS

| Binder | % activity, 100 µM [1] | % activity, 100 µM [2] | % activity, 100 µM [3] | % activity, 100 µM [4] | % activity, 100 µM [5] | % activity, 100 µM [6] | % activity, 100 µM [7] | % activity, 100 µM [8] | % activity, 100 µM [9] | % activity, 100 µM [10] | % activity, 100 µM [11] | % activity, 100 µM [12] | % activity, 100 µM [13] | % activity, 100 µM [14] | % activity, 100 µM [15] | % activity, 100 µM [16] | % activity, 100 µM [17] | % activity, 100 µM [18] | % activity, 100 µM [19] | % activity, 100 µM [20] | also measured |
| --- | --- | --- | --- | --- | --- | --- | --- | --- | --- | --- | --- | --- | --- | --- | --- | --- | --- | --- | --- | --- | --- |
| KAFAKLAARLYRKALARQLGVAA [MMI-0400] | 18% | 54% | 70% | 92% | 93% | 17% | 265% | 31% | 93% | 87% | 90% | 40% | 7% | 8% | 131% | 96% | 92% | 54% | 150% | 36% | % activity, 100 µM [21]: 16% |
| FAKLAARLYRKALARQLGVAA [MMI-0300] | 84% | 74% | 89% | 88% | 98% | 16% | 255% | 102% | 91% | 84% | 87% | 65% | 8% | 10% | 114% | 90% | 94% | 66% | 134% | 46% | % activity, 100 µM [21]: 32% |
